Like-named read-outs stand apart in the source and are kept apart here. Blank lines part the entries; values can stand above or below the molecule they belong to.
Tests used:
[1] = biological target: Sema2b_(full) with the dimerization cysteine mutated to serine (Drosophila melanogaster); test: SEC-MALS; Superdex 200 Increase 10/300, 15 mM HEPES pH 7.4, 150 mM NaCl; with SDS-PAGE under reducing and non-reducing conditions; initial concentrations up to 2 mg/ml; monomer to dimer
[2] = biological target: Drosophila melanogaster semaphorin-1a full-length ectodomain (Sema1a_(ecto)) (Drosophila melanogaster); test: as above
[3] = biological target: T1, Drosophila melanogaster PlexA1–4-mVenus (Drosophila melanogaster, UniProt Q9V491 28-730); test: MST; plexin-mVenus kept constant, unlabelled semaphorin titrated (1:1 dilution series); 25 °C; 15 mM HEPES pH 7.4, 150 mM NaCl, 2 mM CaCl2, 0.005% Tween-20; 1 h incubation at room temperature; apparent Kd
T1 construct: Plexin A, Drosophila melanogaster, domains 1-4 of the ectodomain, residues 28Q-730T; source: HEK293T, transient transfection, purified (HisTrap, SEC); not shown: mVenus, C-terminal, kept
T1 sequence (looked up): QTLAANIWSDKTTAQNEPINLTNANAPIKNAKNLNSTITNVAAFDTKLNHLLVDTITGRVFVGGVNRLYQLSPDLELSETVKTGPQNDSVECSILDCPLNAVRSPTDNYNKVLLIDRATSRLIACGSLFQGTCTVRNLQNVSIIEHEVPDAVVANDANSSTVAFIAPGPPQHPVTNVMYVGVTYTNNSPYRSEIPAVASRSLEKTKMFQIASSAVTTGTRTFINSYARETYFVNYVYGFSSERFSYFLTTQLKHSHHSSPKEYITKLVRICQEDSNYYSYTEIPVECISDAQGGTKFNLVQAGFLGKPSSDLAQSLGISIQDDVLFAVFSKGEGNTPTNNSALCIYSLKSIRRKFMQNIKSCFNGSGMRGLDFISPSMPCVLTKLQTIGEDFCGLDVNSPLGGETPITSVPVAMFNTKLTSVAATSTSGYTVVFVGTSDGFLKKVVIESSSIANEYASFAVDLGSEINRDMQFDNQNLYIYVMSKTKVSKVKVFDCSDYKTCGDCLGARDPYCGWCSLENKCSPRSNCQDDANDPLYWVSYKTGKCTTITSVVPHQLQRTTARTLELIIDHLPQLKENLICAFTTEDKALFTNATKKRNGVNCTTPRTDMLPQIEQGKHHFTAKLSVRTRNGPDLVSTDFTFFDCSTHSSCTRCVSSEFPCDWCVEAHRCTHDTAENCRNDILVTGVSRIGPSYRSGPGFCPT

[4] = biological target: Drosophila melanogaster PlexB1–4-mVenus (Drosophila melanogaster) (UniProt Q9V4A7); test: as above
Drosophila melanogaster PlexB1–4-mVenus (Drosophila melanogaster), sequence (Q9V4A7 35-730): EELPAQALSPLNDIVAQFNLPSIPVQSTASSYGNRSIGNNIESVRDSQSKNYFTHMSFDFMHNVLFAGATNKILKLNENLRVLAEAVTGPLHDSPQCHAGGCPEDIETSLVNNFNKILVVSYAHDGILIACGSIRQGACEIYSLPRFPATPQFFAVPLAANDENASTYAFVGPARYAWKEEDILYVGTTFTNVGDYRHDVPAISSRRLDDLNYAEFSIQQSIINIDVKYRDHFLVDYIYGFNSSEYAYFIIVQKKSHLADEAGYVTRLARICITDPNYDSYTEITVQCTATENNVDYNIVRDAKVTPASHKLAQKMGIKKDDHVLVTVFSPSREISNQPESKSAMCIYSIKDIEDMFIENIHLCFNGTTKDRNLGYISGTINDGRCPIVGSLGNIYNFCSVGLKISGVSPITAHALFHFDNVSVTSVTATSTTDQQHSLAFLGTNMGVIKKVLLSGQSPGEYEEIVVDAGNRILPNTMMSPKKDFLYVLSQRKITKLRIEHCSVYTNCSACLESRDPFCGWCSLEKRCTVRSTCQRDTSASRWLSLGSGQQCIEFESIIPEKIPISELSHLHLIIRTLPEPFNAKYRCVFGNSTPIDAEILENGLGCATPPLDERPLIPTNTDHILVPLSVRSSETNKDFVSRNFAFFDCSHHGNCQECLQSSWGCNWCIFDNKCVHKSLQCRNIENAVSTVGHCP

[5] = biological target: Drosophila melanogaster full-length secreted semaphorin-2b (Sema2b_(full)) (Drosophila melanogaster); test: SEC-MALS; Superdex 200 Increase 10/300, 15 mM HEPES pH 7.4, 150 mM NaCl; with SDS-PAGE under reducing and non-reducing conditions; initial concentrations up to 2 mg/ml; monomer to dimer
[6] = biological target: the molecule itself; test: as above
[7] = biological target: Drosophila melanogaster full-length secreted semaphorin-2b (Sema2b_(full)) (Drosophila melanogaster); test: SEC-MALS; co-expressed heterodimer purified by HisTrap, StrepTactin and SEC; Superdex 200 Increase 10/300, 15 mM HEPES pH 7.4, 150 mM NaCl; with SDS-PAGE under reducing and non-reducing conditions

- stoichiometry N [1]: 2
Molecule: Sema2b_(full) with the dimerization cysteine mutated to serine (ligand)

- stoichiometry N [2]: 2
Molecule: Drosophila melanogaster semaphorin-1a full-length ectodomain (Sema1a_(ecto)) (domain or fragment)

- Kd [3]: 141 nM
Molecule: Fc-tagged dimerized Sema1a_(ecto) (Sema1a_(ecto)-Fc) (from UniProt Q24322 21-602) (Fc fusion)

- Kd [4]: 3 nM
- stoichiometry N [5]: 2
Molecule: Drosophila melanogaster full-length secreted semaphorin-2b (Sema2b_(full)) (ligand)

- Kd [4]: 13 nM
Molecule: Sema2a/2b heterodimer (Sema2a_(full)-TwinStrep with Sema2b_(full)-His6, disulfide-linked) (from UniProt Q24323 26-724) (complex)

- stoichiometry N [7]: 1
B1: Drosophila melanogaster full-length secreted semaphorin-2a (Sema2a_(full)) (ligand, UniProt Q24323 26-724, looked up)
chain: DYENTWNFYYERPCCTGNDQGNNNYGKHGADHVREFNCGKLYYRTFHMNEDRDTLYVGAMDRVFRVNLQNISSSNCNRDVINLEPTRDDVVSCVSKGKSQIFDCKNHVRVIQSMDQGDRLYVCGTNAHNPKDYVIYANLTHLPRSEYVIGVGLGIAKCPYDPLDNSTAIYVENGNPGGLPGLYSGTNAEFTKADTVIFRTDLYNTSAKRLEYKFKRTLKYDSKWLDKPNFVGSFDIGEYVYFFFRETAVEYINCGKAVYSRIARVCKKDVGGKNLLAHNWATYLKARLNCSISGEFPFYFNEIQSVYQLPSDKSRFFATFTTSTNGLIGSAVCSFHINEIQAAFNGKFKEQSSSNSAWLPVLNSRVPEPRPGTCVNDTSNLPDTVLNFIRSHPLMDKAVNHEHNNPVYYKRDLVFTKLVVDKIRIDILNQEYIVYYVGTNLGRIYKIVQYYRNGESLSKLLDIFEVAPNEAIQVMEISQTRKSLYIGTDHRIKQIDLAMCNRRYDNCFRCVRDPYCGWDKEANTCRPYELDLLQDVANETSDICDSSVLKKKIVVTYGQSVHLGCFVKIPEVLKNEQVTWYHHSKDKGRYEIRYSPTKYIETTERGLVVVSVNEADGGRYDCHLGGSLLCSYNITVDAHRCTPPNKSNDYQKIYSDWCHEFEKYKTAMKSWEKKQAQCSTRQNFSSNQHPNEIFRKPNV
notes: Semaphorin-2a, Drosophila melanogaster, residues 26D-724V; Disulfide-linked dimer in solution; source: HEK293T (37 °C), transient transfection, purified (HisTrap, SEC)
- stoichiometry N [6]: 2

B2: Sema2a_(full) with the dimerization cysteine (Cys279) mutated to serine (ligand, Drosophila melanogaster, UniProt Q24323 26-724, looked up)
chain: DYENTWNFYYERPCCTGNDQGNNNYGKHGADHVREFNCGKLYYRTFHMNEDRDTLYVGAMDRVFRVNLQNISSSNCNRDVINLEPTRDDVVSCVSKGKSQIFDCKNHVRVIQSMDQGDRLYVCGTNAHNPKDYVIYANLTHLPRSEYVIGVGLGIAKCPYDPLDNSTAIYVENGNPGGLPGLYSGTNAEFTKADTVIFRTDLYNTSAKRLEYKFKRTLKYDSKWLDKPNFVGSFDIGEYVYFFFRETAVEYINSGKAVYSRIARVCKKDVGGKNLLAHNWATYLKARLNCSISGEFPFYFNEIQSVYQLPSDKSRFFATFTTSTNGLIGSAVCSFHINEIQAAFNGKFKEQSSSNSAWLPVLNSRVPEPRPGTCVNDTSNLPDTVLNFIRSHPLMDKAVNHEHNNPVYYKRDLVFTKLVVDKIRIDILNQEYIVYYVGTNLGRIYKIVQYYRNGESLSKLLDIFEVAPNEAIQVMEISQTRKSLYIGTDHRIKQIDLAMCNRRYDNCFRCVRDPYCGWDKEANTCRPYELDLLQDVANETSDICDSSVLKKKIVVTYGQSVHLGCFVKIPEVLKNEQVTWYHHSKDKGRYEIRYSPTKYIETTERGLVVVSVNEADGGRYDCHLGGSLLCSYNITVDAHRCTPPNKSNDYQKIYSDWCHEFEKYKTAMKSWEKKQAQCSTRQNFSSNQHPNEIFRKPNV
notes: Semaphorin-2a, Drosophila melanogaster, residues 26D-724V, Cys279 to serine; also called Sema2a_(full) Cys to Ser mutant; source: HEK293T, transient transfection, purified (HisTrap, SEC)
- stoichiometry N [6]: 2

B3: Sema1b_(ecto) with phenylalanine 254 mutated to cysteine (domain or fragment, Drosophila melanogaster, UniProt Q7KK54 37-659, looked up)
chain: DVKPDLQTKQDKVLAHFIGNSTDYFKILDHNDEFVLVGAKDVIYNVSLNGLKEIARLEWHSTDADRELCALKGKHEWDCHNYLRVYALRPNGEVLLCGTNSYKPRCRHYTPVEVSSEEAGSAGHAHAMRYEVSRDVEAQGLCPYSPAHNSTYAFADGHLYSATVADFSGGDPLIYRENLRTEQYDLKQLNQPDFVGAIERNGYVLFFFRELSMEVMNCGKAVYSRVARVCKNDRGGPYSHGKSWTSFLKARLNCSVPGEFPFYFDEIQAISPIVESGSKSLIYAVFTTSVNAIPGSAVCAFNVDDILAAFDGEFKSQKDSQSHWLPVEREQVPKPRPGQCVEDSRTLTSIAVNFIKNHPLMEEAVPAVHGRPLLTKVNLHHRLTAIAVHPQVKSLSGAYYDVIYSGTDDGKVTKFINILSTHPNSTVDRLKTVVISEMQVLPLGTPIRELVISTSKNSLVVVSDGSLVSVPLHHCSHIVDCLGCLSLQDPICAWDLQTHECKNLATSQHKFGTKTYLQSLNSTKKAAALLCPHIPRDAPGAETVSFVTMAPPPTEEQKLLYSNVGSSQGNQPSLEQQPTGGDDFGLNKITLTSMDPDDIMPNLNDPQKSTASVDEIKYASTPS
notes: Semaphorin-1b, Drosophila melanogaster, ectodomain, residues 37D-659S, F254C; also called Sema1b_(ecto) F254C; source: HEK293T, transient transfection, purified (HisTrap, SEC)
- stoichiometry N [6]: 2

- Kd ([3]; both partners purified): 586 ± 134 nM
B4: Drosophila melanogaster semaphorin-1b full-length ectodomain (Sema1b_(ecto)) (domain or fragment, UniProt Q7KK54 37-659, looked up)
chain: DVKPDLQTKQDKVLAHFIGNSTDYFKILDHNDEFVLVGAKDVIYNVSLNGLKEIARLEWHSTDADRELCALKGKHEWDCHNYLRVYALRPNGEVLLCGTNSYKPRCRHYTPVEVSSEEAGSAGHAHAMRYEVSRDVEAQGLCPYSPAHNSTYAFADGHLYSATVADFSGGDPLIYRENLRTEQYDLKQLNQPDFVGAIERNGYVLFFFRELSMEVMNFGKAVYSRVARVCKNDRGGPYSHGKSWTSFLKARLNCSVPGEFPFYFDEIQAISPIVESGSKSLIYAVFTTSVNAIPGSAVCAFNVDDILAAFDGEFKSQKDSQSHWLPVEREQVPKPRPGQCVEDSRTLTSIAVNFIKNHPLMEEAVPAVHGRPLLTKVNLHHRLTAIAVHPQVKSLSGAYYDVIYSGTDDGKVTKFINILSTHPNSTVDRLKTVVISEMQVLPLGTPIRELVISTSKNSLVVVSDGSLVSVPLHHCSHIVDCLGCLSLQDPICAWDLQTHECKNLATSQHKFGTKTYLQSLNSTKKAAALLCPHIPRDAPGAETVSFVTMAPPPTEEQKLLYSNVGSSQGNQPSLEQQPTGGDDFGLNKITLTSMDPDDIMPNLNDPQKSTASVDEIKYASTPS
notes: Semaphorin-1b, Drosophila melanogaster, ectodomain, residues 37D-659S; Monomer in solution; source: HEK293T (30 °C), transient transfection, purified (HisTrap, SEC)
